US20190119357A1, “MESSENGER RIBONUCLEIC ACIDS FOR THE PRODUCTION OF INTRACELLULAR BINDING POLYPEPTIDES AND METHODS OF USE THEREOF” (ModernaTX, Inc., priority 2015, published 2019)

What was measured:
Hep3B cells [1] = test: Effect of insertion site position on apoptotic potency, YOYO3; assay type: cell-based; settings: Hep3B cells transfected with constructs
Description: BH3 domain was inserted into either the N-terminal insertion site, the loop 1 insertion site or the loop 2 insertion site of the SQT scaffold polypeptide. The mRNA sequences of these SQT-BID-BH3 constructs, with a FLAG epitope tag, are shown in SEQ ID NOs: 43-45, respectively. Corresponding mRNA sequences without the FLAG tag are shown in SEQ ID NOs: 46-48. Hep3B cells were transfected with the constructs and the apoptotic ability of the constructs was assessed using YOYO3 to determine cell death, as described above.

Hep3B cells [2] = test: Co-transfection of SQT-Bim-BH3 in MC3 LNPs with Bcl-2-like trap mRNA constructs, YOYO-3; assay type: cell-based; settings: 272 picomolar SQT-Bim-BH3 in MC3 LNPs, increasing amounts of trap mRNA, 12 hour time point
Description: YOYO-3 viability dye was used to assess apoptosis of cells.

cells = test: Half-life determination by bio-orthogonal non-canonical amino acid tagging (BONCAT); assay type: cell-based; settings: SQT protein scaffold in cells, post-transfection, one-phase decay fit
Description: The half-life of the SQT protein scaffold in cells was determined by Bio-orthogonal non-canonical amino acid tagging (BONCAT). […] AHA contains a reactive group (a terminal azide), which can be conjugated to a fluorophore via click chemistry. Newly synthesized proteins in the cells were separated by molecular weight (SDS-PAGE) at various time points post-transfection and visualized via in-gel fluorescence. The fluorescent signal was quantified using Li-cor's Image Studio (Version 3.1). One-phase decay nonlinear regression fit was by GraphPad Prism (Version 6).

[3] = Pharmacokinetics of intracellular expression of SQT scaffold polypeptide in mouse livers in vivo; parameters: species or system mice; settings: mouse liver
Description: Studies were performed to assess the pharmacokinetics of intracellular expression of the SQT scaffold polypeptide in mouse livers in vivo following multiple dosing. Mice were dosed on day 0 and on day 7 with an LNP carrying an mmRNA construct encoding the SQT scaffold polypeptide. The construct lacked any presenting polypeptides at any of the insertion sites (i.e., the construct was a “dummy” construct of only the scaffold), and was labeled with a FLAG epitope tag. Following dosing with the LNPs, liver protein was recovered and analyzed for expression of the SQT scaffold using the FLAG epitope tag for detection and quantification by quantitative Western blot analysis (LICOR/Western). Protein amounts were normalized to vinculin.

B1: SQT(nt)BID-BH3: mRNA (SEQ ID NO: 43) encoding SQT with a single BID BH3 domain in the N-terminal insertion site (nucleic acid, listed as Homo sapiens)
chain: ATGATACCCAGACAAGAGGACATCATTCGTAACATCGCGCGACACCTGGCCCAGGTGGGGGACTCCATGGATCGATCAATCCCCCCTGGCTTATCCGAAGCTAAGCCAGCCACCCCTGAGATCCAAGAAATCGTCGACAAGGTCAAGCCCCAACTTGAAGAGAAAACTAATGAAACTTATGGTAAGCTCGAAGCCGTGCAATACAAGACTCAGGTCCTGGCGTCTACAAATTATTACATCAAGGTGAGGGCCGGGGACAATAAGTATATGCATCTGAAAGTCTTCAATGGCCCCCCTGGACAAAACGCAGATCGGGTGCTCACAGGATACCAGGTCGATAAAAATAAAGATGACGAACTTACTGGGTTTGATTATAAAGATGATGATGACAAG
modifications: (1)..(393) SQT(nt)BID-BH3 mRNA sequence with FLAG epitope tag
With B1 the “apoptotic potency (YOYO3 cell death)” value (Hep3B cells [1]) was “more potent than the SQT-BID-BH3 constructs with the BH3 domain inserted at either the loop 1 insertion site or the loop 2 insertion site”.

B2: Bcl-2 (D34A) del.C32: Bcl-2-like trap mRNA, SEQ ID NO: 82, FLAG tag (nucleic acid)
chain: ATGGCACACGCTGGTAGGACAGGCTACGACAACCGTGAGATTGTGATGAAGTATATTCACTATAAGCTGTCTCAAAGAGGCTACGAATGGGATGCGGGGGCCGTCGGGGCTGCCCCACCTGGTGCCGCCCCGGCTCCTGGGATTTTCTCTTCCCAGCCGGGACATACCCCTCATCCTGCCGCTTCTAGGGACCCTGTGGCAAGAACATCCCCTCTACAGACCCCTGCCGCCCCAGGTGCGGCTGCTGGCCCAGCGTTAAGTCCCGTTCCACCAGTCGTGCACCTTACCCTTAGGCAAGCGGGCGACGATTTCTCTAGGCGATACCGGAGGGACTTTGCCGAAATGTCATCACAGCTCCATCTTACTCCATTTACTGCCCGTGGCAGATTCGCCACCGTAGTGGAAGAACTCTTTCGAGACGGCGTAAATTGGGGGAGGATCGTGGCATTTTTCGAATTTGGAGGGGTTATGTGTGTGGAGAGCGTGAATCGGGAAATGTCTCCTCTGGTTGACAATATTGCCTTGTGGATGACCGAATATCTTAACAGGCACCTCCACACCTGGATTCAAGATAATGGTGGATGGGATGCGTTTGTGGAACTTTATGGGCCTTCAATGCGTGACTATAAGGACGACGACGACAAA
modifications: FLAG tag; Synthetic Bcl-2(D34A)del.C32 BH3 mRNA sequence with FLAG epitope tag
In the case of B2, the “protection from apoptosis by SQT-Bim-BH3 (YOYO-3)” value (Hep3B cells [2]) is reported as “all of the tested trap constructs except Bcl-2 (D34A) del.C32 were able to protect”.

B3: SQT scaffold: Stefin A Quadruple Mutant-Tracy scaffold polypeptide (SEQ ID NO: 70) expressed from a dummy mmRNA construct (protein)
chain: MIPRGLSEAKPATPEIQEIVDKVKPQLEEKTNETYGKLEAVQYKTQVLASTNYYIKVRAGDNKYMHLKVFNGPPGQNADRVLTGYQVDKNKDDELTGF
modifications: Synthetic SteA SQT scaffold amino acid sequence
With B3 the half-life (cells) was 33.31 h, the “time to peak protein levels” value ([3]; first dose (day 0) of LNP) was “approximately 20 hours” and the “time at which protein levels were essentially finished” value ([3]; post-injection of first dose) was “approximately 160 hours”. The “time to peak protein levels” value ([3]; second dose (day 7), post-injection) was “approximately 20 hours”.
